Data from patent US20240174741A1 (IMMUNOME, published 2024).

Key:
[1] = biological target: T1, human interleukin-38 (IL-38) (human, UniProt Q8WWZ1 1-152); test: BLI (Octet QKe), antibody on anti-mouse Fc biosensors, soluble IL-38, 1:1 model
T1 construct: The Adipogen protein is called full length; also called IL1F10/IL38; IL1F10
T1 sequence (looked up): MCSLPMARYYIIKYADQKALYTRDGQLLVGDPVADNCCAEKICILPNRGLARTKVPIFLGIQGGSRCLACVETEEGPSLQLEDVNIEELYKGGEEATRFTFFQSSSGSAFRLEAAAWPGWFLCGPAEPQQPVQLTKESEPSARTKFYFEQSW
Method: Antibody was loaded to AMC probes, blocked in the kinetics buffer for 1 min (baseline) and dipped into an appropriate IL-38 solution. IL-38 association to antibodies of interest was measured for 180 seconds at 28° C. Biosensors were subsequently dipped into kinetics buffer-containing wells and the protein dissociation was measured for 600 s. KD, Kon and Kdis values were identified using the 1:1 built-in model of the ForteBio's Data Analysis 9 software.

IL-36b = biological target: T2, IL-36b (human, UniProt Q9NZH7 1-164, limits assumed); test: CDI HuProt native protein microarray, IL-1 family members
T2 sequence (looked up): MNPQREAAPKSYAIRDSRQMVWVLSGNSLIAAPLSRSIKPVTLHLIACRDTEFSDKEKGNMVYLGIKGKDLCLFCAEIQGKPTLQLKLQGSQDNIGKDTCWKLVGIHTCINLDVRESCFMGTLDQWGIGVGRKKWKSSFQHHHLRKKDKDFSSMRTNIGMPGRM
Method: (§1) To confirm specificity to IL-38, several lead candidate antibodies (CD1-M3, CD1-M8, NZB-M8) were analyzed in a High-Spec Cross-reactivity Assay using native HuProt arrays (CDI Laboratories). […] of antibody was incubated overnight in a cold room, washed, and probed with anti-human secondary antibodies. Fluorescence intensity (F635) as an indicator of binding was measured for each spot. CDI software quantified the specificity of the antibody to each spot based on a Z-score. Z-score is defined as [F635−(Average F635 on array)]/(Standard deviation of F635 on array). S-score is defined as the difference between the Z-score of a given protein and the Z-score of the next highest protein.

IL-1Ra = IL-1Ra (human, UniProt P18510 26-177, limits assumed); test: as above
IL-1Ra, sequence (P18510 26-177 limits assumed): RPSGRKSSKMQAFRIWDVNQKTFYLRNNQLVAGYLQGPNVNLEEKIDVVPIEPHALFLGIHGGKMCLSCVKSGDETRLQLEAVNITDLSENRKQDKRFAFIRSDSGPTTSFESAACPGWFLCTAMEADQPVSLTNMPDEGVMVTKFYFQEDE
Method: as §1

IL-36a = biological target: T3, IL-36a (human, UniProt Q9UHA7 1-158, limits assumed); test: as above
T3 sequence (looked up): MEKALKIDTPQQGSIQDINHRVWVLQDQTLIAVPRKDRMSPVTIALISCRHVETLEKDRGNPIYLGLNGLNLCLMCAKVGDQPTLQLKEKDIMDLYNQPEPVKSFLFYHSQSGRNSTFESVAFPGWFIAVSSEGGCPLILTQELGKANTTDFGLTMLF
Method: as §1

IL-1α = biological target: T4, IL-1α (human, UniProt P01583 1-271, limits assumed); test: as above
T4 sequence (looked up): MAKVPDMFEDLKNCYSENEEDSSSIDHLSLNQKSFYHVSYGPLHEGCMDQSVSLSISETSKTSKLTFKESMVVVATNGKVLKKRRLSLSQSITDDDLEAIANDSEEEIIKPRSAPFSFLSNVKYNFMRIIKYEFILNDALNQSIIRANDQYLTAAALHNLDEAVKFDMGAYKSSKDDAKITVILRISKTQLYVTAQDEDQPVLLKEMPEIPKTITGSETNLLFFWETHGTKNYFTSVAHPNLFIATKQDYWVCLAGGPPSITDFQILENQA
Method: as §1

IL-18 = biological target: T5, IL-18 (human, UniProt Q14116 1-193, limits assumed); test: as above
T5 sequence (looked up): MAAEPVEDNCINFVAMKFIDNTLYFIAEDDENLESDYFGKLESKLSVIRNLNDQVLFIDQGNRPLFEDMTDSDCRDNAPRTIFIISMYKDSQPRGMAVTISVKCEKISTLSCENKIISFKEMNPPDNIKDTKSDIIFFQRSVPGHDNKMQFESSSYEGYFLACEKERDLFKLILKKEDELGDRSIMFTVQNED
Method: as §1

[2] = biological target: T1, human interleukin-38 (IL-38); test: as above
Method: as §1

IL-37 = biological target: T6, IL-37 (human, UniProt Q9NZH6 1-218, limits assumed); test: as above
T6 sequence (looked up): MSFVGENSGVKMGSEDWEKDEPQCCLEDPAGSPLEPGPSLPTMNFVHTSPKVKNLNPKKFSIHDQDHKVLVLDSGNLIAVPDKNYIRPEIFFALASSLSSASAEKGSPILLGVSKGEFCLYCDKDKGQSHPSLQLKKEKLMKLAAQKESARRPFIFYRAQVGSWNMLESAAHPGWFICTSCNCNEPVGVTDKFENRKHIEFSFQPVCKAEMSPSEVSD
Method: as §1

IL-36Ra = biological target: T7, IL-36Ra (human, UniProt Q9UBH0 1-155, limits assumed); test: as above
T7 sequence (looked up): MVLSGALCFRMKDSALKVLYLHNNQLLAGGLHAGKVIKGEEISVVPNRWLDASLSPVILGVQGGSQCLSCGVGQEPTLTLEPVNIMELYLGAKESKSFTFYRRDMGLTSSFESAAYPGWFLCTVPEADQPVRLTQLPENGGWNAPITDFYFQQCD
Method: as §1

IL-33 = biological target: T8, IL-33 (human, UniProt O95760 1-270, limits assumed); test: as above
T8 sequence (looked up): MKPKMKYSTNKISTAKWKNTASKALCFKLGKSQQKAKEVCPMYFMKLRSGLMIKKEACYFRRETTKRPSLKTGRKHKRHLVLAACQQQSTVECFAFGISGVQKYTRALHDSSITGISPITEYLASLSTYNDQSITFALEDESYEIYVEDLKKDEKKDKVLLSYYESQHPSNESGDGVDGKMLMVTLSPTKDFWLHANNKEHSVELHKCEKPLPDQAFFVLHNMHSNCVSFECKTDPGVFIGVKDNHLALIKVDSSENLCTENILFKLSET
Method: as §1

IL-1β = IL-1β (human, UniProt P01584 1-269, limits assumed); test: as above
Method: as §1

Kd [1]: 0.721 nM
Z-score (IL-36b): -0.016
Z-score (IL-1Ra): -0.013
Z-score (IL-36a): -0.008
Z-score (IL-1α): -0.013
Z-score (IL-18): -0.016
Z-score [2]: 140
Z-score (IL-37): -0.013
Z-score (IL-36Ra): -0.017
Z-score (IL-33): -0.02
Z-score (IL-1β): -0.016
B1: CD1-M3 (antibody, V domains shown)
VH: EVQLQQSGPELVKPGASVKIPCKASGYTFTDYNMDWVKQSHGKSLEWIGDINPNNGGTIYNQKFKGKATLTVDKSSSTAYMELRSLTSEDTAVYYCSRPYYGYFAYWGQGTLVTVSA
VL: DVVMTQSPLSLPVSLGDQASISCRSSQSLVHSHENTFLHWYLQKPGQSPKLLIYRVSNRFSGVPDRFSGSGSGTDFTLKISRVEAEDLGVYFCSQSTHVPLTFGAGTKLELK
notes: Mouse monoclonal from a hybridoma of a CD-1 mouse immunized with full length recombinant IL-38
